In publication PMC4598629:

Experiments:
[1] = biological target: SOAR, purified wild-type protein (UniProt Q13586); experiment: cross-linking; purified proteins dialysed against PBS, 0.5 mg/ml, disuccinimidyl suberate 0, 0.1 and 1 mM, 30 min, room temperature; SDS-PAGE, Coomassie blue; monomers to dimer
[2] = biological target: SOAR, purified wild-type protein (UniProt Q13586); experiment: SEC; purified SOAR and SOAR-F394H, ~0.5 mg/ml, Superdex-200 16/60, 200 mM NaCl, 20 mM Mes-NaOH pH 6.5, 2.5 ml/min; calibrated with protein standards; monomers to dimer
[3] = biological target: SOAR-F394H, purified protein (UniProt Q13586); experiment: cross-linking; purified proteins dialysed against PBS, 0.5 mg/ml, disuccinimidyl suberate 0, 0.1 and 1 mM, 30 min, room temperature; SDS-PAGE, Coomassie blue; monomers to dimer
[4] = biological target: SOAR-F394H, purified protein (UniProt Q13586); experiment: SEC; purified SOAR and SOAR-F394H, ~0.5 mg/ml, Superdex-200 16/60, 200 mM NaCl, 20 mM Mes-NaOH pH 6.5, 2.5 ml/min; calibrated with protein standards; monomers to dimer

Row | stoichiometry N [1] | stoichiometry N [2] | stoichiometry N [3] | stoichiometry N [4] | Substance
1 | 2 | 2 |  |  | SOAR, purified wild-type protein (from UniProt Q13586 344-442) (domain or fragment)
2 |  |  | 2 | 2 | SOAR-F394H, purified protein (from UniProt Q13586 344-442) (domain or fragment)
